In patent US20250002574A1 (SUNSHINE LAKE PHARMA, published 2025):

B1: “VH1+VL3”-scFv (scFv)
scFv: QVQLVQSGAEVKKPGASVKVSCKASDYTFTNYWLGWVRQAPGQGLEWMGHIYPGGGYTNYNEKFKGRVTMTRDTSTSTVYMELSSLRSEDTAVYYCARVRSGNDALDFWGQGTLVTVSSGGGGSGGGGSGGGGSEIVLTQSPATLSLSPGERATLSCRASESVDEYGISFMNWFQQKPGQAPRLLIYSASNQGSGIPARFSGSGSGTDFTLTISSLEPEDFAVYFCQQSKEVPWTFGGGTKLEIK
B2: “VH1+VL2”-scFv (scFv)
scFv: QVQLVQSGAEVKKPGASVKVSCKASDYTFTNYWLGWVRQAPGQGLEWMGHIYPGGGYTNYNEKFKGRVTMTRDTSTSTVYMELSSLRSEDTAVYYCARVRSGNDALDFWGQGTLVTVSSGGGGSGGGGSGGGGSEIVLTQSPATLSLSPGERATLSCRASESVDEYGISFMNWYQQKPGQAPRLLIYSASNQGSGIPARFSGSGSGTDFTLTISSLEPEDFAVYFCQQSKEVPWTFGGGTKLEIK
B3: “VH2+VL2”-scFv (scFv)
scFv: QVQLVQSGAEVKKPGASVKVSCKASDYTFTNYWLGWVRQAPGQGLEWIGHIYPGGGYTNYNEKFKGRVTMTADTSTSTVYMELSSLRSEDTAVYFCARVRSGNDALDFWGQGTLVTVSSGGGGSGGGGSGGGGSEIVLTQSPATLSLSPGERATLSCRASESVDEYGISFMNWYQQKPGQAPRLLIYSASNQGSGIPARFSGSGSGTDFTLTISSLEPEDFAVYFCQQSKEVPWTFGGGTKLEIK
B4: “VH1+VL1”-scFv (scFv)
scFv: QVQLVQSGAEVKKPGASVKVSCKASDYTFTNYWLGWVRQAPGQGLEWMGHIYPGGGYTNYNEKFKGRVTMTRDTSTSTVYMELSSLRSEDTAVYYCARVRSGNDALDFWGQGTLVTVSSGGGGSGGGGSGGGGSEIVLTQSPATLSLSPGERATLSCRASESVDEYGISFMNWYQQKPGQAPRLLIYSASNQGSGIPARFSGSGSGTDFTLTISSLEPEDFAVYYCQQSKEVPWTFGGGTKLEIK
notes: CHO expression supernatant
B5: “VH2+VL3”-scFv (scFv)
scFv: QVQLVQSGAEVKKPGASVKVSCKASDYTFTNYWLGWVRQAPGQGLEWIGHIYPGGGYTNYNEKFKGRVTMTADTSTSTVYMELSSLRSEDTAVYFCARVRSGNDALDFWGQGTLVTVSSGGGGSGGGGSGGGGSEIVLTQSPATLSLSPGERATLSCRASESVDEYGISFMNWFQQKPGQAPRLLIYSASNQGSGIPARFSGSGSGTDFTLTISSLEPEDFAVYFCQQSKEVPWTFGGGTKLEIK
B6: “VH2+VL1”-scFv (scFv)
scFv: QVQLVQSGAEVKKPGASVKVSCKASDYTFTNYWLGWVRQAPGQGLEWIGHIYPGGGYTNYNEKFKGRVTMTADTSTSTVYMELSSLRSEDTAVYFCARVRSGNDALDFWGQGTLVTVSSGGGGSGGGGSGGGGSEIVLTQSPATLSLSPGERATLSCRASESVDEYGISFMNWYQQKPGQAPRLLIYSASNQGSGIPARFSGSGSGTDFTLTISSLEPEDFAVYYCQQSKEVPWTFGGGTKLEIK
B7: “VH1+VL4”-scFv (scFv)
scFv: QVQLVQSGAEVKKPGASVKVSCKASDYTFTNYWLGWVRQAPGQGLEWMGHIYPGGGYTNYNEKFKGRVTMTRDTSTSTVYMELSSLRSEDTAVYYCARVRSGNDALDFWGQGTLVTVSSGGGGSGGGGSGGGGSEIVLTQSPATLSLSPGERATLSCRASESVDEYGISFMNWFQQKPGQAPRLLIYSASNQGSGIPARFSGSGSGTDFTLTISSLEPEDFAMYFCQQSKEVPWTFGGGTKLEIK

Each binder was assayed against T1, IL-11 (UniProt P20809 22-199, limits assumed) (assay: SPR Biacore, scFv captured, IL-11 400 nM).
T1 construct: also called IL-11 protein; IL-11 antigen
T1 sequence (looked up): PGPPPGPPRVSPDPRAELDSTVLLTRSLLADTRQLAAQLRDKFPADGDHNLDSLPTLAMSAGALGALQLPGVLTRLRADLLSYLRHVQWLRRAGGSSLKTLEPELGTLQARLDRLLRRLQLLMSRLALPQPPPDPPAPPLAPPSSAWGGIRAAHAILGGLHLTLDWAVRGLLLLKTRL
Experimental: The measure method included the steps of capturing the humanized single-chain antibody at a flow rate of 10 uL/min. […] Finally, the chip was regenerated with 10 mM glycine buffer.
Binder B1 has a Kd of 12.3 nM, a koff of 0.000436 s⁻¹ and a kon of 35500 M⁻¹ s⁻¹. For B2, the Kd was 11.2 nM, the koff was 0.000461 s⁻¹ and the kon was 41300 M⁻¹ s⁻¹. In the case of B3, the Kd is reported as 17.8 nM, the koff is reported as 0.000812 s⁻¹ and the kon is reported as 45700 M⁻¹ s⁻¹. B4 was tested, and the Kd was 21.6 nM, the koff was 0.000758 s⁻¹ and the kon was 35100 M⁻¹ s⁻¹. Binder B5 has a Kd of 11.9 nM, a koff of 0.000541 s⁻¹ and a kon of 45600 M⁻¹ s⁻¹. With B6 the Kd was 16.7 nM, the koff was 0.00089 s⁻¹ and the kon was 53400 M⁻¹ s⁻¹. For B7, the Kd was 11.7 nM, the koff was 0.000387 s⁻¹ and the kon was 33100 M⁻¹ s⁻¹.
